B1: Polycomb protein Sfmbt (Drosophila melanogaster (Fruit fly)), Q9VK33 (parent)
chain: MNPSELRMMWMSSQYNSERITLEDAATLLGHPTVGLSVMEDLSAHQPTLDMNPMMSLMGGDFTGQAAATAAALGVQPGTLIATNSNNLYGFAHMGGLQQQLLQQSAAAAVFQNYAEAMDNDVENGMVGMAMEAVVDDDDQVYGQRDNNFDDNGSELEPKQEIINIDDFVMMNEDNNSYDGTDFMTSSDKDISQSSSSCMAQMPGSLGVPGVEHDLLVPLPDGLLHHKLLGTTLVPAMGTLNGNAFGNIMVSTENTSSKQMQRTYSTAKGANSTATTATCSASTSSALRSQRKTRKIEPVNRPGLVLKTPIAYRGNIDPSVIPIQKDGMAVCKRCGAIGVKHTFYTKSRRFCSMACARGELYSLVLNTKMEGDQATTSSPDPGAGSESADLPGDQQQSQSDIELDLHAAHIKNANYRFRITDQSKITQLNSFGEPMSMGGDAAANNVQMAADETIAALNGGAVGDATAPGSTEEGASTPNSYLSAAPTPKALRLFKDIYPQDDLPQIPKYERLPVPCPQMEKIISIRRRMYDPTHSYDWLPRLSKENFNAAPVTCFPHAPGCEVWDNLGVGMKVEVENTDCDSIEVIQPGQTPTSFWVATILEIKGYKALMSYEGFDTDSHDFWVNLCNAEVHSVGWCATRGKPLIPPRTIEHKYKDWKDFLVGRLSGARTLPSNFYNKINDSLQSRFRLGLNLECVDKDRISQVRLATVTKIVGKRLFLRYFDSDDGFWCHEDSPIIHPVGWATTVGHNLAAPQDYLERMLAGREAMIEVHEDDATIELFKMNFTFDEYYSDGKTNSFVEGMKLEAVDPLNLSSICPATVMAVLKFGYMMIRIDSYQPDASGSDWFCYHEKSPCIFPAGFCSVNNISVTPPNGYDSRTFTWEGYLRDTGAVAAGQHLFHRIIPDHGFEVGMSLECADLMDPRLVCVATVARVVGRLLKVHFDGWTDEYDQWLDCESADIYPVGWCVLVNHKLEGPPRVAHQQAPKPAPKPKIQRKRKPKKGAAGGKTPTDNNTQSVKSRTIALKTTPHLPKLSIKLELKPEHHNAAFYENNQPEEEGDEEDPDADGDGDGSTSHISEQSTTQSSSDLIAGSGSGSGSASLVTLATGSNKTNSSATNNKYIPRLADIDSSEPHLELVPDTWNVYDVSQFLRVNDCTAHCDTFSRNKIDGKRLLQLTKDDIMPLLGMKVGPALKISDLIAQLKCKVNPGRARSHKTNKSPFL

The variants in the first test derive from B1. The following applies: with h33_human H3-3A.
Take D808A: the “effect of a mutation on the interaction” value was “decreasing interaction”.

Variants of B1 are the subject of another test. The following applies: with h4_human H4C16, P62805.
On to D808A, for which the “effect of a mutation on the interaction” value is recorded as “decreasing interaction”.

Variants of B1 are the subject of the next test. The following applies: with h4_human H4C16, P62805. This is another data set of the same source.
As to Y948F, the “effect of a mutation on the interaction” value is “decreasing interaction”.
For E947A, the “effect of a mutation on the interaction” value is on record as “decreasing interaction”.

The next test covers variants of B1. The following applies: with h4_human H4C16, P62805. This is another data set of the same source.
Regarding Y948F, the “effect of a mutation on the interaction” value was “disrupting interaction”.
Same read-out and setting: under E947A stands “disrupting interaction”.

Variants of B1 are the subject of the next test. The following applies: with h4_human H4C16, P62805. This is another data set of the same source.
Take D917A: the “effect of a mutation on the interaction” value is on record as “disrupting interaction”.

Variants of B1 are the subject of another test. The following applies: with h33_human H3-3A. The source holds these as a separate data set.
As to D917A, the “effect of a mutation on the interaction” value is reported as “disrupting interaction”.

The variants in another test derive from B1. The following applies: with h4_human H4C16, P62805. The source holds these as a separate data set.
D697A: the “effect of a mutation on the interaction” value is on record as “decreasing interaction”.

Variants of B1 are the subject of another test. The following applies: with h33_human H3-3A. The source holds these as a separate data set.
Consider D697A, for which the “effect of a mutation on the interaction” value is given as “increasing interaction”.

The record behind these values is IntAct's records for PubMed 19494831.
